Publication PMC9105384, “Ethyl Gallate Dual-Targeting PTPN6 and PPARγ Shows Anti-Diabetic and Anti-Obese Effects” (International Journal of Molecular Sciences, 2022)

B1: PTPN14 (Homo sapiens) (protein)
chain: MPFGLKLRRTRRYNVLSKNCFVTRIRLLDSNVIECTLSVESTGQECLEAVAQRLELRETHYFGLWFLSKSQQARWVELEKPLKKHLDKFANEPLLFFGVMFYVPNVSWLQQEATRYQYYLQVKKDVLEGRLRCTLDQVIRLAGLAVQADFGDYNQFDSQDFLREYVLFPMDLALEEAVLEELTQKVAQEHKAHSGILPAEAELMYINEVERLDGFGQEIFPVKDNHGNCVHLGIFFMGIFVRNRIGRQAVIYRWNDMGNITHNKSTILVELINKEETALFHTDDIENAKYISRLFATRHKFYKQNKICTEQSNSPPPIRRQPTWSRSSLPRQQPYILPPVHVQCGEHYSETHTSQDSIFHGNEEALYCNSHNSLDLNYLNGTVTNGSVCSVHSVNSLNCSQSFIQASPVSSNLSIPGSDIMRADYIPSHRHSAIIVPSYRPTPDYETVMRQMKRGILHTDSQSQSLRNLNIINTHAYNQPEDLVYSQPEMRERHPYTVPYGPQGVYSNKLVSPSDQRNPKNNVVPSKPGASAISHTVSTPELANMQLQGSHNYSTAHMLKNYLFRPPPPYPRPRPATSTPDLASHRHKYVSGSSPDLVTRKVQLSVKTFQEDSSPVVHQSLQEVSEPLTATKHHGTVNKRHSLEVMNSMVRGMEAMTLKSLHLPMARRNTLREQGPPEEGSGSHEVPQLPQYHHKKTFSDATMLIHSSESEEEEEEAPESVPQIPMLREKMEYSAQLQAALARIPNKPPPEYPGPRKSVSNGALRQDQASLPPAMARARVLRHGPAKAISMSRTDPPAVNGASLGPSISEPDLTSVKERVKKEPVKERPVSEMFSLEDSIIEREMMIRNLEKQKMAGLEAQKRPLMLAALNGLSVARVSGREENRVDATRVPMDERFRTLKKKLEEGMVFTEYEQIPKKKANGIFSTAALPENAERSRIREVVPYEENRVELIPTKENNTGYINASHIKVVVGGAEWHYIATQGPLPHTCHDFWQMVWEQGVNVIAMVTAEEEGGRTKSHRYWPKLGSKHSSATYGKFKVTTKFRTDSVCYATTGLKVKHLLSGQERTVWHLQYTDWPDHGCPEDVQGFLSYLEEIQSVRRHTNSMLEGTKNRHPPIVVHCSAGVGRTGVLILSELMIYCLEHNEKVEVPMMLRLLREQRMFMIQTIAQYKFVYQVLIQFLQNSRLI
B2: DUSP15 (Homo sapiens) (protein)
chain: MTEGVLPGLYLGNFIDAKDLDQLGRNKITHIISIHESPQPLLQDITYLRIPVADTPEVPIKKHFKECINFIHCCRLNGGNCLVHCFAGISRSTTIVTAYVMTVTGLGWRDVLEAIKATRPIANPNPGFRQQLEEFGWASSQKGARHRTSKTSGAQCPPMTSATCLLAARVALLSAALVREATGRTAQRCRLSPRAAAERLLGPPPHVAAGWSPDPKYQICLCFGEEDPGPTQHPKEQLIMADVQVQLRPGSSSCTLSASTERPDGSSTPGNPDGITHLQCSCLHPKRAASSSCTR
B3: PTPN12 (Homo sapiens) (protein)
chain: MEQVEILRKFIQRVQAMKSPDHNGEDNFARDFMRLRRLSTKYRTEKIYPTATGEKEENVKKNRYKDILPFDHSRVKLTLKTPSQDSDYINANFIKGVYGPKAYVATQGPLANTVIDFWRMIWEYNVVIIVMACREFEMGRKKCERYWPLYGEDPITFAPFKISCEDEQARTDYFIRTLLLEFQNESRRLYQFHYVNWPDHDVPSSFDSILDMISLMRKYQEHEDVPICIHCSAGCGRTGAICAIDYTWNLLKAGKIPEEFNVFNLIQEMRTQRHSAVQTKEQYELVHRAIAQLFEKQLQLYEIHGAQKIADGVNEINTENMVSSIEPEKQDSPPPKPPRTRSCLVEGDAKEEILQPPEPHPVPPILTPSPPSAFPTVTTVWQDNDRYHPKPVLHMVSSEQHSADLNRNYSKSTELPGKNESTIEQIDKKLERNLSFEIKKVPLQEGPKSFDGNTLLNRGHAIKIKSASPCIADKISKPQELSSDLNVGDTSQNSCVDCSVTQSNKVSVTPPEESQNSDTPPRPDRLPLDEKGHVTWSFHGPENAIPIPDLSEGNSSDINYQTRKTVSLTPSPTTQVETPDLVDHDNTSPLFRTPLSFTNPLHSDDSDSDERNSDGAVTQNKTNISTASATVSAATSTESISTRKVLPMSIARHNIAGTTHSGAEKDVDVSEDSPPPLPERTPESFVLASEHNTPVRSEWSELQSQERSEQKKSEGLITSENEKCDHPAGGIHYEMCIECPPTFSDKREQISENPTEATDIGFGNRCGKPKGPRDPPSEWT
B4: DUSP22 (Homo sapiens) (protein)
chain: MGNGMNKILPGLYIGNFKDARDAEQLSKNKVTHILSVHDSARPMLEGVKYLCIPAADSPSQNLTRHFKESIKFIHECRLRGESCLVHCLAGVSRSVTLVIAYIMTVTDFGWEDALHTVRAGRSCANPNVGFQRQLQEFEKHEVHQYRQWLKEEYGESPLQDAEEAKNILAAPGILKFWAFLRRL
B5: DUSP3 (Homo sapiens) (protein)
chain: MSGSFELSVQDLNDLLSDGSGCYSLPSQPCNEVTPRIYVGNASVAQDIPKLQKLGITHVLNAAEGRSFMHVNTNANFYKDSGITYLGIKANDTQEFNLSAYFERAADFIDQALAQKNGRVLVHCREGYSRSPTLVIAYLMMRQKMDVKSALSIVRQNREIGPNDGFLAQLCQLNDRLAKEGKLKP
B6: PTPN18 (Homo sapiens) (protein)
chain: MSRSLDSARSFLERLEARGGREGAVLAGEFSDIQACSAAWKADGVCSTVAGSRPENVRKNRYKDVLPYDQTRVILSLLQEEGHSDYINGNFIRGVDGSLAYIATQGPLPHTLLDFWRLVWEFGVKVILMACREIENGRKRCERYWAQEQEPLQTGLFCITLIKEKWLNEDIMLRTLKVTFQKESRSVYQLQYMSWPDRGVPSSPDHMLAMVEEARRLQGSGPEPLCVHCSAGCGRTGVLCTVDYVRQLLLTQMIPPDFSLFDVVLKMRKQRPAAVQTEEQYRFLYHTVAQMFCSTLQNASPHYQNIKENCAPLYDDALFLRTPQALLAIPRPPGGVLRSISVPGSPGHAMADTYAVVQKRGAPAGAGSGTQTGTGTGTGARSAEEAPLYSKVTPRAQRPGAHAEDARGTLPGRVPADQSPAGSGAYEDVAGGAQTGGLGFNLRIGRPKGPRDPPAEWTRV
B7: DUSP14 (Homo sapiens) (protein)
chain: MSSRGHSTLPRTLMAPRMISEGDIGGIAQITSSLFLGRGSVASNRHLLQARGITCIVNATIEIPNFNWPQFEYVKVPLADMPHAPIGLYFDTVADKIHSVSRKHGATLVHCAAGVSRSATLCIAYLMKFHNVCLLEAYNWVKARRPVIRPNVGFWRQLIDYERQLFGKSTVKMVQTPYGIVPDVYEKESRHLMPYWGI
B8: PTPN21 (Homo sapiens) (protein)
chain: MPLPFGLKLKRTRRYTVSSKSCLVARIQLLNNEFVEFTLSVESTGQESLEAVAQRLELREVTYFSLWYYNKQNQRRWVDLEKPLKKQLDKYALEPTVYFGVVFYVPSVSQLQQEITRYQYYLQLKKDILEGSIPCTLEQAIQLAGLAVQADFGDFDQYESQDFLQKFALFPVGWLQDEKVLEEATQKVALLHQKYRGLTAPDAEMLYMQEVERMDGYGEESYPAKDSQGSDISIGACLEGIFVKHKNGRHPVVFRWHDIANMSHNKSFFALELANKEETIQFQTEDMETAKYIWRLCVARHKFYRLNQCNLQTQTVTVNPIRRRSSSRMSLPKPQPYVMPPPPQLHYNGHYTEPYASSQDNLFVPNQNGYYCHSQTSLDRAQIDLNGRIRNGSVYSAHSTNSLNNPQPYLQPSPMSSNPSITGSDVMRPDYLPSHRHSAVIPPSYRPTPDYETVMKQLNRGLVHAERQSHSLRNLNIGSSYAYSRPAALVYSQPEIREHAQLPSPAAAHCPFSLSYSFHSPSPYPYPAERRPVVGAVSVPELTNAQLQAQDYPSPNIMRTQVYRPPPPYPPPRPANSTPDLSRHLYISSSNPDLITRRVHHSVQTFQEDSLPVAHSLQEVSEPLTAARHAQLHKRNSIEVAGLSHGLEGLRLKERTLSASAAEVAPRAVSVGSQPSVFTERTQREGPEEAEGLRYGHKKSLSDATMLIHSSEEEEDEDFEEESGARAPPARAREPRPGLAQDPPGCPRVLLAGPLHILEPKAHVPDAEKRMMDSSPVRTTAEAQRPWRDGLLMPSMSESDLTTSGRYRARRDSLKKRPVSDLLSGKKNIVEGLPPLGGMKKTRVDAKKIGPLKLAALNGLSLSRVPLPDEGKEVATRATNDERCKILEQRLEQGMVFTEYERILKKRLVDGECSTARLPENAERNRFQDVLPYDDVRVELVPTKENNTGYINASHIKVSVSGIEWDYIATQGPLQNTCQDFWQMVWEQGIAIIAMVTAEEEGGREKSFRYWPRLGSRHNTVTYGRFKITTRFRTDSGCYATTGLKMKHLLTGQERTVWHLQYTDWPEHGCPEDLKGFLSYLEEIQSVRRHTNSTSDPQSPNPPLLVHCSAGVGRTGVVILSEIMIACLEHNEVLDIPRVLDMLRQQRMMLVQTLCQYTFVYRVLIQFLKSSRLI
B9: DUSP9 (Homo sapiens) (protein)
chain: MEGLGRSCLWLRRELSPPRPRLLLLDCRSRELYESARIGGALSVALPALLLRRLRRGSLSVRALLPGPPLQPPPPAPVLLYDQGGGRRRRGEAEAEAEEWEAESVLGTLLQKLREEGYLAYYLQGGFSRFQAECPHLCETSLAGRAGSSMAPVPGPVPVVGLGSLCLGSDCSDAESEADRDSMSCGLDSEGATPPPVGLRASFPVQILPNLYLGSARDSANLESLAKLGIRYILNVTPNLPNFFEKNGDFHYKQIPISDHWSQNLSRFFPEAIEFIDEALSQNCGVLVHCLAGVSRSVTVTVAYLMQKLHLSLNDAYDLVKRKKSNISPNFNFMGQLLDFERSLRLEERHSQEQGSGGQASAASNPPSFFTTPTSDGAFELAPT
B10: DUSP18 (Homo sapiens) (protein)
chain: MTAPSCAFPVQFRQPSVSGLSQITKSLYISNGVAANNKLMLSSNQITMVINVSVEVVNTLYEDIQYMQVPVADSPNSRLCDFFDPIADHIHSVEMKQGRTLLHCAAGVSRSAALCLAYLMKYHAMSLLDAHTWTKSCRPIIRPNSGFWEQLIHYEFQLFGKNTVHMVSSPVGMIPDIYEKEVRLMIPL

substrate: Cc1cc(=O)oc2c(F)c(OP(=O)(O)O)c(F)cc12; test: purified protein, by the assay type; set-up: DiFMUP hydrolysis by purified PTPs, fluorescence Ex355/Em460, initial rates over 10 min; Michaelis-Menten and Lineweaver-Burk Km
Description: The enzymatic activity of each PTP was evaluated using 6,8-difluoro-4-methylumbelliferyl phosphate (DiFMUP) as the surrogate substrate. To reach within the range of the initial rate (v0) during the measurement for 10 min, the pH and concentration of each PTP were optimized and are listed in Table S3. To determine the Km values, each PTP with optimized concentration was added to the reaction buffer (20 mM Bis-Tris at pH 6.0 or Tris at pH 7.0 and 8.0, 150 mM NaCl, 2.5 mM dithiothreitol (DTT), 0.01% Triton X-100) containing various concentrations of DiFMUP to obtain a final volume of 100 μL in a 96-well plate. Fluorescence intensities were measured once every minute for a complete 10 min duration using a Victor™ X4 Multilabel Plate Reader (Perkin Elmer, Waltham, MA, USA) at excitation/emission = 355 nm/460 nm. The initial rates of the reaction were determined using a previously described procedure for calculating the amount of product formation. To screen a library of 1033 natural products (Chengdu Biopurify Phytochemicals Ltd., Chengdu, China) against 20 PTPs, each PTP with an optimized concentration was added to the reaction buffer with an optimized pH containing DiFMUP (2 × Km for each PTP) after adding each compound (20 μM). […] The IC50 values were estimated using a sigmoid plot in GraphPad Prism 5 software (GraphPad Software Inc., San Diego, CA, USA). The Hill coefficient (nH), the degree of cooperativity, was calculated according to a previously published method. To determine the inhibition constant (Ki) and identify the inhibition mode of EG, various concentrations of EG (2.5, 5, 10, and 20 μM) were assayed with various concentrations of DiFMUP (260, 130, 65, and 32.5 μM). Kinetic parameters were obtained using Dixon plots for Ki and Lineweaver-Burk plots for the inhibition mode.

Protein | Km [µM]
B1 | 423.7
B2 | 9.1
B3 | 75.8
B4 | 13.0
B5 | 100.0
B6 | 5.5
B7 | 55.0
B8 | 46.7
B9 | 35.0
B10 | 29.0
